Source: patent US20240269271A1

How the values were obtained:
HVEM [1] = assay: competition ELISA, plates coated with BTLA, HVEM binding read out
HVEM [2] = assay: competition ELISA, plates coated with BTLA, HVEM binding read out; control protein

Substance	percent inhibition of HVEM binding to BTLA (HVEM [1]) [%]	percent inhibition of HVEM binding to BTLA (HVEM [2]) [%]
commercially available gD protein (ligand)	90	
sequence of the V2 loop of HIV envelope linked to a His-tag		45
